Values quoted from earlier work in paper PMC7369927.
Like-named read-outs stand apart in the source and are kept apart here.

What was measured:
AT1 receptor [1] = molecular target: AT1 receptor (UniProt P30556)
AT1 receptor [2] = molecular target: AT1 receptor (UniProt P30556); remark: listed apart in the source

Sequence of UniProt P30556 (P30556 whole entry): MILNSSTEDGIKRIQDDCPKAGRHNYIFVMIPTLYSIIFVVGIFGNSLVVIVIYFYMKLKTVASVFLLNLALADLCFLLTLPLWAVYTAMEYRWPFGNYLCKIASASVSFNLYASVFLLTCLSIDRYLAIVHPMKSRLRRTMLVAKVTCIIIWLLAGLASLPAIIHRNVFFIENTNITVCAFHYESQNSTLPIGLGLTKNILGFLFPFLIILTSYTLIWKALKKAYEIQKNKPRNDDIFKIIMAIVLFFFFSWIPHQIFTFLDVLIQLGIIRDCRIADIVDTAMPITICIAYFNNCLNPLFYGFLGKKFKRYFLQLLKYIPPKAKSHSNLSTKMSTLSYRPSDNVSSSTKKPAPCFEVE

Substance	Kd (AT1 receptor [1])	Kd (AT1 receptor [2])
Ang II (from UniProt P01019)	2 nM	–
Ang-(1-7) (from UniProt P01019)	–	200 nM
